Assays:
Wnt signaling [1] = assay: Local application into CA3 in mice housed under control conditions; type: in vivo
From the text: (§1) For enriched environment (EE) experiments, male mice were housed in groups of 3-4 littermates in large (rat) cages equipped with 3 running wheels per cage, toys and hiding spaces. Control mice were male littermates (3-4), which were housed individually in small standard cages without special equipment. Unless stated otherwise, EE was started at 1 month of age, and lasted 20 days.
Mature recombinant sFRP-1 was obtained from R&D systems and dissolved in PBS/0.1% BSA (vehicle: PBS/0.1% BSA) to a working concentration of 50 μg/ml. Wnt agonist (Calbiochem) was dissolved in a small volume of DMSO and then further diluted with PBS to a final concentration of 10 mM (DMSO<1:1000). PBS/DMSO solution alone was used as vehicle for control injections. Antibodies were from the following sources: Bassoon, anti-mouse Alexa Fluor 546 and 647, anti-goat Alexa Fluor 546 and 633, donkey anti-goat Alexa Fluor 568 (Molecular Probes); NeuN anti-mouse (CHEMICON); anti-human Wnt7a/b antibody (R&D, P56706). […] Reagents, with their working concentrations were: TTX (Laxotan, 1 μM, stock in acetate buffer), Bicuculine (SIGMA, 20 μM in water), CGP (SIGMA, 0.4 μM in water), Picrotoxin (SIGMA, 20 μM in water).
Injection canulas were implanted unilaterally (left hemisphere) above the CA3 b-a region of Isofluorane-anesthetized mice using stereotactical guidance. Canulas were fixed with dental cement. Implantation coordinates from Bregma (implantation 0.5 mm above injection site as the needle surpassed canula by 0.5 mm): ante-posterior −2.06 mm, lateral 2.5 mm, dorso-ventral −1.4 mm. Animals were allowed to recover for 3 days after surgery before drug treatments started.
(§2) Animals were injected under Isofluorane anesthesia with 300 nl of either drug (treated) or vehicle (control) through a small needle guided through the implanted canulas every 3-4 days for 12-21 days (depending on experiment). Canula positions were confirmed in all analyzed sections to be above Ca3b-a without harming the mossy fiber projection or CA3 pyramidal cell dendrites.
(§3) Microscope images were processed and analysed using Metamorph 6.1, Imaris 4.2 (Bitplane AG) and ImageJ softwares. We defined LMTs as mossy fiber terminal regions of >2.5 μm diameter in CA3a-c, which were arranged either en-passant, or as side structures connected to the mossy fiber axon or another LMT by an axonal process (satellite). For the quantification of LMT sizes in 3D (volumes) at least three confocal 3D stacks were acquired in CA3b for each preparation (three mice per condition), and analyzed using Imaris 4.2 software.
Individual LMT volumes contained in these cubes were measured using the Surpass/ Isosurface function of the software. Non-saturating imaging conditions were chosen for all size analyses. An intensity threshold of 300 was chosen to selectively analyze LMTs (excluding axons and other smaller objects). All identified objects were verified by eye inspection. Generally, the settings for the analysis were identical for all samples of all ages, but in some cases we verified the settings through internal calibration using the diameters and signal intensities of axons. After these measurements, LMTs were grouped according to their volumes. The volumes of all LMTs in one group were added up, and expressed as percentage of the total volume of all LMTs measured per cube. For the quantification of LMT sizes in 2D, MIPs of 3D stacks were created in ImageJ, and LMT surfaces (areas in μm^2) were measured. For all samples, LMTs were inspected by eye in 3D to be identified as individual LMTs and not fused with other LMTs. LMT numbers were determined in CA3b as follows: the sum of all mGFP-positive LMTs within a region of interest (ROI; a MIP) was divided by the number of mGFP-labeled axons within that ROI, and by the length along CA3 included in the ROI. LMT numbers were then normalized to 100 μm axon length. Wnt7a/b staining intensities were measured on single confocal planes. […]

Wnt signaling [2] = assay: Application to organotypic slice cultures; type: cell-based; conditions: organotypic slice cultures (not shown)
From the text: Organotypic slice cultures were based on the Stoppini method (Stoppini et al., 1991), as described (De Paola et al., 2003).
Immunocytochemistry preparations were imaged on an LSM510 confocal microscope (Zeiss) using a 40× (1.4) oil-immersion objective. Imaging of organotypic slice cultures was as described. Briefly, images were acquired with an LSM 510 (Zeiss), using a 40× (1.4) oil objective (Zeiss); image sizes were 2048×2048, and stepsizes were 0.4 μm. Where indicated, drugs were replaced every 3-4 days, together with fresh medium.
as §3

Wnt signaling [3] = assay: sFRP-1 applied locally into hippocampal CA3 through a canule in mice housed under enriched environment (EE) conditions; type: in vivo; conditions: sFRP-1 present in CA3 during entire EE procedure, vs vehicle; no effect in dentate gyrus
From the text: as §1
Mature recombinant sFRP-1 was obtained from R&D systems and dissolved in PBS/0.1% BSA (vehicle: PBS/0.1% BSA) to a working concentration of 50 μg/ml. Wnt agonist (Calbiochem) was dissolved in a small volume of DMSO and then further diluted with PBS to a final concentration of 10 mM (DMSO<1:1000). […]
as §2
(§4) Microscope images were processed and analysed using Metamorph 6.1, Imaris 4.2 (Bitplane AG) and ImageJ softwares. […] For the quantification of LMT sizes in 3D (volumes) at least three confocal 3D stacks were acquired in CA3b for each preparation (three mice per condition), and analyzed using Imaris 4.2 software. […]

Wnt signaling [4] = assay: sFRP-1 applied in Rab3a-/- mice housed under EE conditions; type: in vivo
From the text: Transgenic mice expressing membrane-targeted GFP in only a few neurons (Thy1-mGFPs, L21 and L15) were as described (De Paola et al., 2003). Transgenic males were crossed over more than ten generations with non-transgenic F1 offsprings from C57BI6×BalbC crosses, so that the genetic background of the mice was 50% each of C57BI6 and BalbC. Rab3a knockout mice (B6; 129S-Rab3a^tm1Sud/J) were obtained from the Jackson Laboratory and backcrossed into Thy1-mGFP (L21) mice.
For enriched environment (EE) experiments, male mice were housed in groups of 3-4 littermates in large (rat) cages equipped with 3 running wheels per cage, toys and hiding spaces. […]
as §2, §4

[5] = local into CA3, control housing

COc1cccc(-c2cnc(N)nc2NCc2ccc3c(c2)OCO3)c1 [Wnt agonist, 2-amino-4-[3,4-(methylenedioxy)benzyl-amino]-5-(3-methoxyphenyl)pyrimidine, reference compound]
AZ densities at LMTs (Wnt signaling [1]; [5]): increased | stratum lucidum AZ numbers (Wnt signaling [1]; [5]): increased | stratum lucidum LMT numbers (Wnt signaling [1]; [5]): increased | LMT satellite numbers (Wnt signaling [2]): increases

B1: sFRP-1: Mature recombinant secreted frizzled-related protein 1 from R&D systems, used as local inhibitor of Wnt signaling (protein, UniProt Q8N474 32-314, looked up)
Secreted frizzled-related …: SEYDYVSFQSDIGPYQSGRFYTKPPQCVDIPADLRLCHNVGYKKMVLPNLLEHETMAEVKQQASSWVPLLNKNCHAGTQVFLCSLFAPVCLDRPIYPCRWLCEAVRDSCEPVMQFFGFYWPEMLKCDKFPEGDVCIAMTPPNATEASKPQGTTVCPPCDNELKSEAIIEHLCASEFALRMKIKEVKKENGDKKIVPKKKKPLKLGPIKKKDLKKLVLYLKNGADCPCHQLDNLSHHFLIMGRKVKSQYLLTAIHKWDKKNKEFKNFMKKMKNHECPTFQSVFK
effect of the enriched housing conditions on AZ numbers (Wnt signaling [3]): effectively suppresses the effect of the enriched housing conditions | effect of the enriched housing conditions on satellite numbers (Wnt signaling [3]): effectively suppresses the effect of the enriched housing conditions | effect of EE on LMT complexities (Wnt signaling [4]): effectively suppressed the effect of EE | effect of EE on LMT numbers (Wnt signaling [4]): effectively suppressed the effect of EE | contents of AZs per LMT (Wnt signaling [1]; [5]): reduction | stratum lucidum AZ numbers (Wnt signaling [1]; [5]): reduction | fractions of LMTs with satellites (Wnt signaling [1]; local into CA3, control housing (not shown)): reduction
